We go through six substances from the supplement of paper PMC5998384.

For series [1], the system named is HeLa Kyoto. Put plainly: solubility in G1/S (NP-40 vs SDS abundance) (log2 ratio); higher = more soluble. As to conditions: cell cycle stage: G1/S.
In series [2] the test system is HeLa Kyoto. Put plainly: melting temperature (median over replicates), in situ; higher = more thermally stable.
In series [3] the test system is HeLa Kyoto. Put plainly: solubility change mitosis vs G1/S (difference of NP-40 vs SDS log2 ratios) (log2 ratio difference); higher = more soluble in mitosis.
Series [4] deals with HeLa Kyoto. Put plainly: thermal stability score vs G1/S (z-score of summed log2 fold changes over temperatures); higher = more thermally stable than in G1/S.
Setting [5] is: cell cycle stage: early G1 (4.5 h after nocodazole release).
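Throughout, for melting temperature (median over replicates), in situ: HeLa Kyoto cells synchronized by double thymidine or nocodazole block, proteins quantified by TMT10plex mass spectrometry, three independent biological replicates.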
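Throughout, for solubility change mitosis vs G1/S (difference of NP-40 vs SDS log2 ratios): synchronized HeLa Kyoto cells (double thymidine block for G1/S, nocodazole release for mitosis), protein amounts in NP-40 versus SDS lysates quantified by mass spectrometry, three biological replicates.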
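Throughout, for solubility in G1/S (NP-40 vs SDS abundance): HeLa Kyoto cells arrested at G1/S by double thymidine block, proteins quantified by TMT10plex mass spectrometry in mild NP-40 versus SDS extracts, three biological replicates.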
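Throughout, for thermal stability score vs G1/S (z-score of summed log2 fold changes over temperatures): synchronized HeLa Kyoto cells, proteins quantified by TMT10plex mass spectrometry, three biological replicates, mitosis taken 0.5 h after nocodazole release, G1/S directly after double thymidine block.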

MARK2, sequence (chain, as listed by the source): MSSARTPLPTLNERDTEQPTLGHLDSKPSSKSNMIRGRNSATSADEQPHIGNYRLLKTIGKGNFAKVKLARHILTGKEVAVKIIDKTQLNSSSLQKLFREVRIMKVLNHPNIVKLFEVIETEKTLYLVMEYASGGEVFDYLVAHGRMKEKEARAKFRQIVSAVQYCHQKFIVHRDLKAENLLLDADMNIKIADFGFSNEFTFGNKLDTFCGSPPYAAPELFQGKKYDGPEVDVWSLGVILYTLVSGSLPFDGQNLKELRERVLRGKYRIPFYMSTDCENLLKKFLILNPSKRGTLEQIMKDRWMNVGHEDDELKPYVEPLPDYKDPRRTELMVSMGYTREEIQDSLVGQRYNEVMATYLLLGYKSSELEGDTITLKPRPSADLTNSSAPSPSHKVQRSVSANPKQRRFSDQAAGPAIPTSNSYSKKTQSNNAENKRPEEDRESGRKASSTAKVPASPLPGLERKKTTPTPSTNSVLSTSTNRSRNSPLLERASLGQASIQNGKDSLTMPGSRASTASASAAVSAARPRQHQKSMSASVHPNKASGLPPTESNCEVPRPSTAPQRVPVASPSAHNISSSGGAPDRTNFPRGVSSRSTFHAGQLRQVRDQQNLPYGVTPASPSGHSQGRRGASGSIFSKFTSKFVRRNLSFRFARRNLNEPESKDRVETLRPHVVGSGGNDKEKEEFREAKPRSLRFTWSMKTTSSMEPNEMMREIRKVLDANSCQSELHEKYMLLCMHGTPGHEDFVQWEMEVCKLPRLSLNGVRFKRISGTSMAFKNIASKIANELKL

As to “MSLSHLYRDGEGRIDDDDDERENFEITDWDLQNEFNPNRQRHWQTKEEATYGVWAERDSDDERPSFGGKRARDYSAPVNFISAGLKKGAAEEAELEDSDDEEKPVKQDDFPKDFGPRKLKTGGNFKPSQKGFAGGTKSFMDFGSWERHTKGIGQKLLQKMGYVPGRGLGKNAQGIINPIEAKQRKGKGAVGAYGSERTTQSMQDFPVVDSEEEAEEEFQKELSQWRKDPSGSKKKPKYSYKTVEELKAKGRISKKLTAPQKELSQVKVIDMTGREQKVYYSYSQISHKHNVPDDGLPLQSQQLPQSGKEAKAPGFALPELEHNLQLLIDLTEQEIIQNDRQLQYERDMVVNLFHELEKMTEVLDHEERVISNLSKVLEMVEECERRMQPDCSNPLTLDECARIFETLQDKYYEEYRMSDRVDLAVAIVYPLMKEYFKEWDPLKDCTYGTEIISKWKSLLENDQLLSHGGQDLSADAFHRLIWEVWMPFVRNIVTQWQPRNCDPMVDFLDSWVHIIPVWILDNILDQLIFPKLQKEVENWNPLTDTVPIHSWIHPWLPLMQARLEPLYSPIRSKLSSALQKWHPSDSSAKLILQPWKDVFTPGSWEAFMVKNIVPKLGMCLGELVINPHQQHMDAFYWVIDWEGMISVSSLVGLLEKHFFPKWLQVLCSWLSNSPNYEEITKWYLGWKSMFSDQVLAHPSVKDKFNEALDIMNRAVSSNVGAYMQPGARENIAYLTHTERRKDFQYEAMQERREAENMAQRGIGVAASSVPMNFKDLIETKAEEHNIVFMPVIGKRHEGKQLYTFGRIVIYIDRGVVFVQGEKTWVPTSLQSLIDMAK [TFIP11]”, the “solubility in G1/S (log2)” value in the series with HeLa Kyoto [1] is -0.472. Moreover, the melting temperature in the series with HeLa Kyoto [2] (cell cycle stage: G1/S) was determined as 48.4 °C; with HeLa Kyoto [2] (cell cycle stage: mitosis), 48.9 °C. The “solubility change mitosis (log2)” value in the series on HeLa Kyoto [3] came out at 0.115. Moreover, the thermal stability score in the series with HeLa Kyoto [4] (setting [5]) was 0.21; with HeLa Kyoto [4] (cell cycle stage: mitosis) it was 1.2.

Take “MAAAVSSVVRRVEELGDLAQAHIQQLSEAAGEDDHFLIRASAALEKLKLLCGEEKECSNPSNLLELYTQAILDMTYFEENKLVDEDFPEDSSSQKVKELISFLSEPEILVKENNMHPKHCNLLGDELLECLSWRRGALLYMYCHSLTKRREWLLRKSSLLKKYLLDGISYLLQMLNYRCPIQLNEGVSFQDLDTAKLLSAGIFSDIHLLAMMYSGEMCYWGSKYCADQQPENHEVDTSVSGAGCTTYKEPLDFREVGEKILKKYVSVCEGPLKEQEWNTTNAKQILNFFHHRCN [C5ORF51]”: the “solubility in G1/S (log2)” value with HeLa Kyoto [1] was found to be 0.302. Moreover, the melting temperature was 49.5 °C with HeLa Kyoto [2] (cell cycle stage: G1/S) and 49.9 °C with HeLa Kyoto [2] (cell cycle stage: mitosis). For the same substance, the “solubility change mitosis (log2)” value with HeLa Kyoto [3] was -0.0335. In addition, the thermal stability score with HeLa Kyoto [4] (setting [5]) was 0.411; with HeLa Kyoto [4] (cell cycle stage: mitosis) it was 1.04.

As to MARK2, the “solubility in G1/S (log2)” value in the series with HeLa Kyoto [1] was -0.0826. Also, the melting temperature turned out to be 49.6 °C in the series with HeLa Kyoto [2] (cell cycle stage: G1/S) and 48.7 °C in the series with HeLa Kyoto [2] (cell cycle stage: mitosis). Besides, in the series with HeLa Kyoto [3], the “solubility change mitosis (log2)” value amounted to 0.0431. Besides, the results for the thermal stability score in the series with HeLa Kyoto [4] (setting [5]) and with HeLa Kyoto [4] (cell cycle stage: mitosis) were 0.513 and 0.569, respectively.

As for “MGLQACLLGLFALILSGKCSYSPEPDQRRTLPPGWVSLGRADPEEELSLTFALRQQNVERLSELVQAVSDPSSPQYGKYLTLENVADLVRPSPLTLHTVQKWLLAAGAQKCHSVITQDFLTCWLSIRQAELLLPGAEFHHYVGGPTETHVVRSPHPYQLPQALAPHVDFVGGLHRFPPTSSLRQRPEPQVTGTVGLHLGVTPSVIRKRYNLTSQDVGSGTSNNSQACAQFLEQYFHDSDLAQFMRLFGGNFAHQASVARVVGQQGRGRAGIEASLDVQYLMSAGANISTWVYSSPGRHEGQEPFLQWLMLLSNESALPHVHTVSYGDDEDSLSSAYIQRVNTELMKAAARGLTLLFASGDSGAGCWSVSGRHQFRPTFPASSPYVTTVGGTSFQEPFLITNEIVDYISGGGFSNVFPRPSYQEEAVTKFLSSSPHLPPSSYFNASGRAYPDVAALSDGYWVVSNRVPIPWVSGTSASTPVFGGILSLINEHRILSGRPPLGFLNPRLYQQHGAGLFDVTRGCHESCLDEEVEGQGFCSGPGWDPVTGWGTPNFPALLKTLLNP [TPP1]”, the “solubility in G1/S (log2)” value with HeLa Kyoto [1] is 0.472. Further, the results for the melting temperature in the series with HeLa Kyoto [2] (cell cycle stage: G1/S) and with HeLa Kyoto [2] (cell cycle stage: mitosis) were 53.8 °C and 53.9 °C, respectively. Also, the “solubility change mitosis (log2)” value in the series on HeLa Kyoto [3] is -0.0648. Besides, the thermal stability score in the series on HeLa Kyoto [4] (setting [5]) was -0.723; in the series with HeLa Kyoto [4] (cell cycle stage: mitosis) it was -1.17.

Take “MRMSVGLSLLLPLSGRTFLLLLSVVMAQSHWPSEPSEAVRDWENQLEASMHSVLSDLHEAVPTVVGIPDGTAVVGRSFRVTIPTDLIASSGDIIKVSAAGKEALPSWLHWDSQSHTLEGLPLDTDKGVHYISVSATRLGANGSHIPQTSSVFSIEVYPEDHSELQSVRTASPDPGEVVSSACAADEPVTVLTVILDADLTKMTPKQRIDLLHRMRSFSEVELHNMKLVPVVNNRLFDMSAFMAGPGNAKKVVENGALLSWKLGCSLNQNSVPDIHGVEAPAREGAMSAQLGYPVVGWHIANKKPPLPKRVRRQIHATPTPVTAIGPPTTAIQEPPSRIVPTPTSPAIAPPTETMAPPVRDPVPGKPTVTIRTRGAIIQTPTLGPIQPTRVSEAGTTVPGQIRPTMTIPGYVEPTAVATPPTTTTKKPRVSTPKPATPSTDSTTTTTRRPTKKPRTPRPVPRVTTKVSITRLETASPPTRIRTTTSGVPRGGEPNQRPELKNHIDRVDAWVGTYFEVKIPSDTFYDHEDTTTDKLKLTLKLREQQLVGEKSWVQFNSNSQLMYGLPDSSHVGKHEYFMHATDKGGLSAVDAFEIHVHRRPQGDRAPARFKAKFVGDPALVLNDIHKKIALVKKLAFAFGDRNCSTITLQNITRGSIVVEWTNNTLPLEPCPKEQIAGLSRRIAEDDGKPRPAFSNALEPDFKATSITVTGSGSCRHLQFIPVVPPRRVPSEAPPTEVPDRDPEKSSEDDVYLHTVIPAVVVAAILLIAGIIAMICYRKKRKGKLTLEDQATFIKKGVPIIFADELDDSKPPPSSSMPLILQEEKAPLPPPEYPNQSVPETTPLNQDTMGEYTPLRDEDPNAPPYQPPPPFTAPMEGKGSRPKNMTPYRSPPPYVPP [DAG1]”: the “solubility in G1/S (log2)” value with HeLa Kyoto [1] was -0.103. The melting temperature amounted to 54.1 °C with HeLa Kyoto [2] (cell cycle stage: G1/S) and 54.9 °C with HeLa Kyoto [2] (cell cycle stage: mitosis). The “solubility change mitosis (log2)” value in the series on HeLa Kyoto [3] was found to be 0.19. Further, the thermal stability score in the series with HeLa Kyoto [4] (setting [5]) is -2.43; in the series with HeLa Kyoto [4] (cell cycle stage: mitosis), -3.27.

Turning to “MEKSNETNGYLDSAQAGPAAGPGAPGTAAGRARRCAGFLRRQALVLLTVSGVLAGAGLGAALRGLSLSRTQVTYLAFPGEMLLRMLRMIILPLVVCSLVSGAASLDASCLGRLGGIAVAYFGLTTLSASALAVALAFIIKPGSGAQTLQSSDLGLEDSGPPPVPKETVDSFLDLARNLFPSNLVVAAFRTYATDYKVVTQNSSSGNVTHEKIPIGTEIEGMNILGLVLFALVLGVALKKLGSEGEDLIRFFNSLNEATMVLVSWIMWYVPVGIMFLVGSKIVEMKDIIVLVTSLGKYIFASILGHVIHGGIVLPLIYFVFTRKNPFRFLLGLLAPFATAFATCSSSATLPSMMKCIEENNGVDKRISRFILPIGATVNMDGAAIFQCVAAVFIAQLNNVELNAGQIFTILVTATASSVGAAGVPAGGVLTIAIILEAIGLPTHDLPLILAVDWIVDRTTTVVNVEGDALGAGILHHLNQKATKKGEQELAEVKVEAIPNCKSEEETSPLVTHQNPAGPVASAPELESKESVL [SLC1A4]”, in the series on HeLa Kyoto [1], the “solubility in G1/S (log2)” value is -0.527. In addition, the melting temperature with HeLa Kyoto [2] (cell cycle stage: G1/S) amounted to 58.9 °C; in the series on HeLa Kyoto [2] (cell cycle stage: mitosis), 62.8 °C. Moreover, the “solubility change mitosis (log2)” value in the series on HeLa Kyoto [3] worked out at 0.0714. Also, the values for the thermal stability score with HeLa Kyoto [4] (setting [5]) and with HeLa Kyoto [4] (cell cycle stage: mitosis) were -1.93 and -4.67, respectively.
